Test results from US20050106100.
Where “and” joins values, the source holds several entries; their conditions need not be identical. Equal entries are not always repeated.

How the values were obtained:
[1] = biological target: T1, Ac-PLG˜Ahp-OL-Ahxh-Ac[C14] (not fully specified)
T1 chain: PLGXXL

[2] = biological target: T2, Ac-P-Cit-Aib˜Hphe-LA-Ahxh-Hynic (not fully specified)
T2 chain: PXXXLA

[3] = biological target: T3, Ac-P-Cit-G˜Aib-LA-Ahxh-Hynic (not fully specified)
T3 chain: PXGXLA

[4] = biological target: T4, Hynic-fff-Ahx-PLG˜Hphe-OLEE-OH
T4 chain: FFFXPLGXXLEE

Ac-PLG˜LYT-Ahxh-Hynic = biological target: T5, Ac-PLG˜LYT-Ahxh-Hynic (not fully specified)
T5 chain: PLGLYT

[5] = biological target: T6, Ac-P-Cit-G˜Abu-LA-Ahxh-Hynic (not fully specified)
T6 chain: PXGXLA

[6] = biological target: T7, Ac-Inp-Cit-G˜Hphe-LA-Ahxh-Hynic (not fully specified)
T7 chain: XXGXLA

[7] = biological target: T8, Ac-PLG˜Hphe-RLT-Ahxh-Hynic
T8 chain: PLGXRLT

[8] = biological target: T9, Ac-P-Cit-G˜Igl-LA-Ahxh-Hynic (not fully specified)
T9 chain: PXGXLA

Ac-PLG˜LOL-Ahxh-Hynic = biological target: T10, Ac-PLG˜LOL-Ahxh-Hynic (not fully specified)
T10 chain: PLGLXL

Ac-PLG˜LYL-Ahxh-Hynic = biological target: T11, Ac-PLG˜LYL-Ahxh-Hynic (not fully specified)
T11 chain: PLGLYL

[9] = biological target: T12, Ac-Oic-LG˜LL-Ahxh-Ac[C14] (not fully specified)
T12 chain: XLGLL

[10] = biological target: T13, H-γ-DGlu-PLG-LYT-Ahxh-Hynic (not fully specified)
T13 chain: EPLGLYT

[11] = biological target: T14, NLys-PLG˜Hphe-YL-Ambh-Hynic
T14 chain: XPLGXYL

Ac-PLG˜Hphe-YL-Hynic = biological target: T15, Ac-PLG˜Hphe-YL-Hynic
T15 chain: PLGXYL

Ac-PRR˜Cha-TA-Ambh-Hynic = biological target: T16, Ac-PRR˜Cha-TA-Ambh-Hynic
T16 chain: PRRXTA

Ac-PLG˜LLA-Ahxh-Hynic = biological target: T17, Ac-PLG˜LLA-Ahxh-Hynic (not fully specified)
T17 chain: PLGLLA

[12] = biological target: T18, Ac-PLG˜Hphe-YLA-Ahxh-Hynic
T18 chain: PLGXYLA

[13] = biological target: T19, Ac-POG˜Hphe-LA-Ahxh-Hynic
T19 chain: PXGXLA

[14] = biological target: T20, Ac-P-NLys-R˜LTA-Ahxh-Hynic (not fully specified)
T20 chain: PXRLTA

Ac-VRW˜LLA-Ahxh-Hynic = biological target: T21, Ac-VRW˜LLA-Ahxh-Hynic
T21 chain: VRWLLA

[15] = biological target: T22, Hynic-ff-Ahx-PLG˜Hphe-OLEE-OH
T22 chain: FFXPLGXXLEE

[16] = biological target: T23, Ac-P-Cit-G˜Hphe-Cit-L-Ahxh-Hynic (not fully specified)
T23 chain: PXGXXL

[17] = biological target: T24, Ac-PL-NLys-LL-NHNH-Ac[C14]
T24 chain: PLXLL

Ac-POG˜Hphe-L-Ambh-Hynic = biological target: T25, Ac-POG˜Hphe-L-Ambh-Hynic
T25 chain: PXGXL

[18] = biological target: T26, Ac-P-NLeu-G˜LL-Ahxh-Ac[C14] (not fully specified)
T26 chain: PXGLL

Suc-PLG˜LYT-Ahxh-Hynic = biological target: T27, Suc-PLG˜LYT-Ahxh-Hynic
T27 chain: PLGLYT

[19] = biological target: T28, Ac-PLG˜Hphe-YLR-Ahxh-Hynic
T28 chain: PLGXYLR

[20] = biological target: T29, Ac-PL-NLys˜Hphe-RL-Ahxh-Ac[C14] (not fully specified)
T29 chain: PLXXRL

[21] = biological target: T30, Ac-P-Hcit-G˜Hphe-SA-Ahxh-Hynic (not fully specified)
T30 chain: PXGXSA

[22] = biological target: T31, Ac-P-DLeu-G˜LL-Ahxh-Hynic (not fully specified)
T31 chain: PLGLL

Ac-VRW˜LTA-Ahxh-Hynic = biological target: T32, Ac-VRW˜LTA-Ahxh-Hynic (not fully specified)
T32 chain: VRWLTA

[23] = biological target: T33, Ac-PLG˜L-Cha-Ahxh-Ac[C14] (not fully specified)
T33 chain: PLGLX

[24] = biological target: T34, Ac-P-Cit-G˜S(OBn)-LA-Ahxh-Hynic (not fully specified)
T34 chain: PXGSLA

Ac-PLG˜LYA-Ahxh-Hynic = biological target: T35, Ac-PLG˜LYA-Ahxh-Hynic (not fully specified)
T35 chain: PLGLYA

Ac-PL-DAla˜LL-Ahxh-Hynic = biological target: T36, Ac-PL-DAla˜LL-Ahxh-Hynic (not fully specified)
T36 chain: PLALL

Ac-PRQ˜IT-Ahxh-Hynic = biological target: T37, Ac-PRQ˜IT-Ahxh-Hynic
T37 chain: PRQIT

[25] = biological target: T38, Ac-Hpro-Cit-G˜Hphe-TA-Ahxh-Hynic (not fully specified)
T38 chain: XXGXTA

[26] = biological target: T39, Ac-PLG˜Hphe-RL-Ahxh-Hynic
T39 chain: PLGXRL

[27] = biological target: T40, Ac-P-Cit-G˜Chg-LA-Ahxh-Hynic (not fully specified)
T40 chain: PXGXLA

[28] = biological target: T41, Ac-NLys-PLG˜LL-Ahxh-Hynic (not fully specified)
T41 chain: XPLGLL

Ac-PRQ˜ITA-Ahxh-Hynic = biological target: T42, Ac-PRQ˜ITA-Ahxh-Hynic
T42 chain: PRQITA

[29] = biological target: T43, Hynic-Ahx-PLG˜Hphe-OLEE-OH
T43 chain: XPLGXXLEE

Ac-PLG˜LWA-Ahxh-Hynic = biological target: T44, Ac-PLG˜LWA-Ahxh-Hynic (not fully specified)
T44 chain: PLGLWA

Ac-PRR˜LTA-Ahxh-Hynic = biological target: T45, Ac-PRR˜LTA-Ahxh-Hynic
T45 chain: PRRLTA

[30] = biological target: T46, Ac-PLG˜Hphe-RLA-Ahxh-Hynic
T46 chain: PLGXRLA

[31] = biological target: T47, Ac-P-Cit-G˜Nle-LA-Ahxh-Hynic (not fully specified)
T47 chain: PXGXLA

[32] = biological target: T48, Ac-P-Cit-G˜Hphe-L-Ahxh-Hynic (not fully specified)
T48 chain: PXGXL

[33] = biological target: T49, Ac-PLG˜S(OBn)-LL-Ahxh-Ac[C14] (not fully specified)
T49 chain: PLGSLL

Ac-NGlu-POG˜Hphe-L-Hynic = biological target: T50, Ac-NGlu-POG˜Hphe-L-Hynic (not fully specified)
T50 chain: XPXGXL

Ac-PHG˜Hphe-L-Ahxh-Hynic = biological target: T51, Ac-PHG˜Hphe-L-Ahxh-Hynic (not fully specified)
T51 chain: PHGXL

[34] = biological target: T52, Ac-PL-NLys˜Hphe-L-Ahxh-Ac[C14] (not fully specified)
T52 chain: PLXXL

B1: human MMP-9 (protein)
chain: MRTPRCGVPDLGRFQTFEGDLKWHHHNITYWIQNYSEDLPRAVIDDAFARAFALWSAVTPLTFTRVYSRDADIVIQFGVAEHGDGYPFDGKDGLLAHAFPPGPGIQGDAHFDDDELWSLGKGVVVPTRFGNADGAACHFPFIFEGRSYSACTTDGRSDGLPWCSTTANYDTDDRFGFCPSERLYTQDGNADGKPCQFPFIFQGQSYSACTTDGRSDGYRWCATTANYDRDKLFGFCPTRADSTVMGGNSAGELCVFPFTFLGKEYSTCTSEGRGDGRLWCATTSNFDSDKKWGFCPDQGYSLFLVAAHEFGHALGLDHSSVPEALMYPMYRFTEGPPLHKDDVNGIRHLYGPRPEPEPRPPTTTTPQPTAPPTVCPTGPPTVHPSERPTAGPTGPPSAGPTGPPTAGPSTATTVPLSPVDDACNVNIFDAIAEIGNQLYLFKDGKYWRFSEGRGSRPQGPFLIADKWPALPRKLDSVFEERLSKKLFFFSGRQVWVYTGASVLGPRRLDKLGLGADVAQVTGALRSGRGKMLLFSGRRLWRFDVKAQMVDPRSASEVDRMFPGVPLDTHDVFQYREKAYFCQDRFYWRVSSRSELNQVDQVGYVTYDILQCPED
Kcat/Km [1]: 9340 M⁻¹ s⁻¹
Kcat/Km [2]: 0 M⁻¹ s⁻¹
Kcat/Km [3]: 772 M⁻¹ s⁻¹
Kcat/Km [4]: 1740 M⁻¹ s⁻¹
Kcat/Km (Ac-PLG˜LYT-Ahxh-Hynic): 223000 M⁻¹ s⁻¹
Kcat/Km [5]: 20600 M⁻¹ s⁻¹
Kcat/Km [6]: 1650 M⁻¹ s⁻¹
Kcat/Km [7]: 103000 M⁻¹ s⁻¹
Kcat/Km [8]: 0 M⁻¹ s⁻¹
Kcat/Km (Ac-PLG˜LOL-Ahxh-Hynic): 39400 M⁻¹ s⁻¹
Kcat/Km (Ac-PLG˜LYL-Ahxh-Hynic): 95000 M⁻¹ s⁻¹
Kcat/Km [9]: 0 M⁻¹ s⁻¹
Kcat/Km [10]: 59400 M⁻¹ s⁻¹
Kcat/Km [11]: 264000 M⁻¹ s⁻¹
Kcat/Km (Ac-PLG˜Hphe-YL-Hynic): > 100000 M⁻¹ s⁻¹
Kcat/Km (Ac-PRR˜Cha-TA-Ambh-Hynic): 1580 M⁻¹ s⁻¹
Kcat/Km (Ac-PLG˜LLA-Ahxh-Hynic): 226000 M⁻¹ s⁻¹
Kcat/Km [12]: 201000 M⁻¹ s⁻¹
Kcat/Km [13]: > 500000 M⁻¹ s⁻¹
Kcat/Km [14]: 0 M⁻¹ s⁻¹
Kcat/Km (Ac-VRW˜LLA-Ahxh-Hynic): 72200 M⁻¹ s⁻¹
Kcat/Km [15]: 6680 M⁻¹ s⁻¹
Kcat/Km [16]: 11400 M⁻¹ s⁻¹
Kcat/Km [17]: 138000 M⁻¹ s⁻¹
Kcat/Km (Ac-POG˜Hphe-L-Ambh-Hynic): 22000 M⁻¹ s⁻¹
Kcat/Km [18]: 0 M⁻¹ s⁻¹
Kcat/Km (Suc-PLG˜LYT-Ahxh-Hynic): 81000 M⁻¹ s⁻¹
Kcat/Km [19]: 243000 M⁻¹ s⁻¹
Kcat/Km [20]: 114000 M⁻¹ s⁻¹
Kcat/Km [21]: 396000 M⁻¹ s⁻¹
Kcat/Km [22]: 438 M⁻¹ s⁻¹
Kcat/Km (Ac-VRW˜LTA-Ahxh-Hynic): 29900 M⁻¹ s⁻¹
Kcat/Km [23]: 475000 M⁻¹ s⁻¹
Kcat/Km [24]: > 250000 M⁻¹ s⁻¹
Kcat/Km (Ac-PLG˜LYA-Ahxh-Hynic): 512000 M⁻¹ s⁻¹
Kcat/Km (Ac-PL-DAla˜LL-Ahxh-Hynic): 0 M⁻¹ s⁻¹
Kcat/Km (Ac-PRQ˜IT-Ahxh-Hynic): 1700 M⁻¹ s⁻¹
Kcat/Km [25]: 160000 M⁻¹ s⁻¹
Kcat/Km [26]: 168000 M⁻¹ s⁻¹
Kcat/Km [27]: 20700 M⁻¹ s⁻¹
Kcat/Km [28]: 83200 M⁻¹ s⁻¹
Kcat/Km (Ac-PRQ˜ITA-Ahxh-Hynic): 3520 M⁻¹ s⁻¹
Kcat/Km [29]: 2980 M⁻¹ s⁻¹ and 1670 M⁻¹ s⁻¹
Kcat/Km (Ac-PLG˜LWA-Ahxh-Hynic): > 500000 M⁻¹ s⁻¹
Kcat/Km (Ac-PRR˜LTA-Ahxh-Hynic): 33500 M⁻¹ s⁻¹
Kcat/Km [30]: 57700 M⁻¹ s⁻¹
Kcat/Km [31]: 116000 M⁻¹ s⁻¹
Kcat/Km [32]: 33300 M⁻¹ s⁻¹
Kcat/Km [33]: > 500000 M⁻¹ s⁻¹
Kcat/Km (Ac-NGlu-POG˜Hphe-L-Hynic): 613 M⁻¹ s⁻¹
Kcat/Km (Ac-PHG˜Hphe-L-Ahxh-Hynic): 4430 M⁻¹ s⁻¹
Kcat/Km [34]: 289000 M⁻¹ s⁻¹
